The series concerns the molecule itself. Put plainly: negative-stain transmission electron microscopy with 2D image reconstruction; SlaA-enriched sacculi (lipids and SlaB removed by SDS washes) sonicated to fragments, on glow discharged grid, 2% uranyl acetate; Fourier domain processing; p3 hexagonal lattice.

B1: S-layer large protein (SlaA) from Saccharolobus solfataricus P2 (natural protein, UniProt Q980C7 36-1231, looked up)
chain: AAIYTIPSVTSVSNTSNIVINLFFNATSNSTVGAQASAFNYGLAINYTLDAITFTVVLPSGTSYPLIKLNAKNFANYGYYDLAHNSIVLLLNTTASSTAKELAYSYEQSIGVTPSASYKIYNYTNKTVNVNQYMNELPLSMLIYMATNGKYNNLASLPVGTKLEFTYAGVTYIIAVSPTVKLVGELLNPLYTANSKMLPGTNYAVGRSNITVAVYDNLITTTTSPFNFTLTYSSLAPALIYWFVIANTTYTNNGASTPTASFQAPPFKQYFPSNSTILYSAAPTKSSILMFNGQMNVTAHENVTLTLQTGTNIYTSPNFNVTPPGNYTFSGKLGVGFNGFIYQNGSATLTATIFNGTINFFFSSTGQKAAFTFFLVPIVPINLGDNNGATVIYNGVSLNTGFPQVVVMFNITGNFTKSGSNYLLYGSVYEAELKPLGSTQLQKLAGATDSTQFVGNLISSASSPLVSYFNYGESTTTITGTSLSFTVLMPLKFIVERLGYIYLVTFHIWGPSATVTVTGVDYHGTQIALGSFRAYVALPSFYTLPKTPLVGLTCDNMYTLAQVSDAGSVLETSTANSNANNATVIGPYDLMSNAGLHVAIYNGSKLVKSGNLGLLPNATTAPITTTITLNGQTVALTYSSAPTAIYPVDFKFEPGFSYSVTTNVIYNTSIPTYVVTVYMPLKYILQTKIVMWYVSPDYAAYFYYSSTGQYQTSNVTLTFANVTPELVMPQVFPVGKLYMPFGINDPYYVFYSSISIGPQSGVIEAVENGFNVGNITSITVELNGMNESIVLSPLNVSKLLISSNLGEVSQCSPLFTTTLFNISALASLLGLPNAAALNGSYLYVTYHDIISGAYVTNRTLLVVGQFYVMPPTTPGSVEWILTAKYINATTGIPVEISYAVVQQPSAKVVDINAANASITQIQVTGVKIVSKYATVTVMYNPSNASTIVYMNGMFVASYGGNLISSLSETSTFGVYYGAVVNLYVATGTLSSPNGTMYVVLGSHKVAVGTANLYTYAGYHFGPYTALPLVSNVTFTVQDPVTHATLTGQTTLGAFNNTPIRLAPLGVSIPQTAQYKVFYYYSTPLVLSPTSQYIVLSVTSVISYPYPFYIETVSFLGYNVTTGTPVPGTPAFQTVYSPSLGPGVVLQVPVQSYQFISLSTPSEPHTVVMFAVPFAGGPAISLYPTFLVYANVTAISS
modifications: glycosylated (sites not given)
notes: SlaA, S-layer large protein of Saccharolobus solfataricus P2; UniProt KB entry Q980C7; Mr 131 kDa as printed; Native protein isolated as an assembled S-layer lattice (sacculi and fragments), not as soluble monomers; also called surface layer large protein; SSO sacculi; source: endogenous, Saccharolobus solfataricus P2; sacculi extracted with sodium lauroylsarcosine and sonication (SEG), washed …
Regarding B1, the binding result is listed as “binds”.
